Biological target: T1, GST–PPM1A (human, UniProt P35813-1 1-382)
T1 construct: also called GST–PPM1A-WT; purified PPM1A
T1 sequence (looked up): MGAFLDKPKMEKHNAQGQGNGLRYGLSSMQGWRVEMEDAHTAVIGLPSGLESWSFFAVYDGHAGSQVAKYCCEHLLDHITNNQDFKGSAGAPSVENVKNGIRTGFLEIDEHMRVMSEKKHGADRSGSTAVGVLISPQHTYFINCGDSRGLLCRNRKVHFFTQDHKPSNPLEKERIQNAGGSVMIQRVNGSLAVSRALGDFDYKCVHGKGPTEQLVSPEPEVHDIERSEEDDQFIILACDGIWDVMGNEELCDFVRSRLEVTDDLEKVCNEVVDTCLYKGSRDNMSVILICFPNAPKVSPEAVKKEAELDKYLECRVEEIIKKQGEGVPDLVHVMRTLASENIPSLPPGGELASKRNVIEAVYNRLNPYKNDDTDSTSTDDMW
Assay: pull-down; 1 μg of each purified protein incubated with glutathione–Sepharose beads at 4°C overnight; washed with 50 mM Tris-HCl pH 7.5, 200 mM NaCl, 10% glycerol, 0.1% Triton X-100; immunoblot
Details: both partners purified

B1: His–STING (amino acids 153–379) (domain or fragment, human, UniProt Q86WV6 153-379, looked up)
chain: FNVAHGLAWSYYIGYLRLILPELQARIRTYNQHYNNLLRGAVSQRLYILLPLDCGVPDNLSMADPNIRFLDKLPQQTGDHAGIKDRVYSNSIYELLENGQRAGTCVLEYATPLQTLFAMSQYSQAGFSREDRLEQAKLFCRTLEDILADAPESQNNCRLIAYQEPADDSSFSLSQEVLRHLRQEEKEEVTVGSLKTSAVPSTSTMSQEPELLISGMEKPLPLRTDFS
binding result: binds
